The text below walks through data of patent US20200347139A1 (INHIBRX BIOSCIENCES, published 2020).

To fix the notation:
T1: mFc-CLEC12a-ECD (human)
T1 construct: It was immobilized on anti-mFc capture sensors for BLI; also called CLEC12a antigen
T1 chain: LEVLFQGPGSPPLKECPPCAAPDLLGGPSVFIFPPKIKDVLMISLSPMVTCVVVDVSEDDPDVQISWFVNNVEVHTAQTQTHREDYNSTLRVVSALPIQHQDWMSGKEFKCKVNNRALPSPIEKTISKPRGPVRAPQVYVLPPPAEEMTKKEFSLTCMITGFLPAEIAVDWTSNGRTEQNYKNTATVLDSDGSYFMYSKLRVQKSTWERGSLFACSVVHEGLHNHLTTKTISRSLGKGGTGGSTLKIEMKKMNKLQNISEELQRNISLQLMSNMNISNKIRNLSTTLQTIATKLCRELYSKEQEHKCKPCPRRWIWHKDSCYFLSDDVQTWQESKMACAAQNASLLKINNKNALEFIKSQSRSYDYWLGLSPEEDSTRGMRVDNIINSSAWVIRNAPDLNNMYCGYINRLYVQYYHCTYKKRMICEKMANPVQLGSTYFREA

T2: human CLEC12a expressed on transiently transfected HEK 293 cells (human, UniProt Q5QGZ9 1-265)
T2 construct: also called CLL-1; CLL1
T2 sequence: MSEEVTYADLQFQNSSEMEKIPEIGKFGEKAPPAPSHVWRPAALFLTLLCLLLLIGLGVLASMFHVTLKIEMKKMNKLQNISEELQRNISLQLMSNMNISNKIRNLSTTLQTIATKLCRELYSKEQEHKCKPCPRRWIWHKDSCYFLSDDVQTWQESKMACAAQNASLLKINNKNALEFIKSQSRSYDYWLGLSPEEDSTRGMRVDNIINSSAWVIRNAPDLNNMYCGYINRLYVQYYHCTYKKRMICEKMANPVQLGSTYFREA

B1: hzME06v16 sdAb (VHH hzME06v16 fused to human IgG1 xELL Fc) (Fc fusion)
chain: EVQLVESGGGEVQPGGSLRLSCAASGFTFDDYAIGWFRQAPGKEREGVSTISSSDGSTYYAESVKGRFTISRDNAKNTVYLQMSSLRAEDTAVYYCALREGLPLLLDTLWRQPVEYDYWGQGTQVTVDKTHTCPPCPAPGGPSVFLFPPKPKDTLMISRTPEVTCVVVDVSHEDPEVKFNWYVDGVEVHNAKTKPREEQYNSTYRVVSVLTVLHQDWLNGKEYKCKVSNKALPAPIEKTISKAKGQPREPQVYTLPPSRDELTKNQVSLTCLVKGFYPSDIAVEWESNGQPENNYKTTPPVLDSDGSFFLYSKLTVDKSRWQQGNVFSCSVMHEALHNHYTQKSLSLSPGK
notes: Humanized version of ME06; No linker is stated; also called hzME06v16-IgG1
B2: MH07 sdAb (VHH MH07 fused to human IgG1 xELL Fc) (Fc fusion)
chain: QVQLVQSGGGLVQPGGSLRLSCVASGLLFSIYDMNWYRQAPGKEREWIAGITNNGYSTAYTDSVQGRFTISRDNAKNTVYLQMNSLKPEDTAVYYCHTDEWGREYWGQGTQVTVDKTHTCPPCPAPGGPSVFLFPPKPKDTLMISRTPEVTCVVVDVSHEDPEVKFNWYVDGVEVHNAKTKPREEQYNSTYRVVSVLTVLHQDWLNGKEYKCKVSNKALPAPIEKTISKAKGQPREPQVYTLPPSRDELTKNQVSLTCLVKGFYPSDIAVEWESNGQPENNYKTTPPVLDSDGSFFLYSKLTVDKSRWQQGNVFSCSVMHEALHNHYTQKSLSLSPGK
notes: Camelid parental VHH; No linker is stated; also called MH07-IgG1
B3: hzMH07v3 sdAb (VHH hzMH07v3 fused to human IgG1 xELL Fc) (Fc fusion)
chain: EVQLVESGGGEVQPGGSLRLSCAASGLLFSIYDMNWYRQAPGKEREWVAGITNNGYSTAYAESVKGRFTISRDNAKNTVYLQMSSLRAEDTAVYYCHTDEWGREYWGQGTLVTVDKTHTCPPCPAPGGPSVFLFPPKPKDTLMISRTPEVTCVVVDVSHEDPEVKFNWYVDGVEVHNAKTKPREEQYNSTYRVVSVLTVLHQDWLNGKEYKCKVSNKALPAPIEKTISKAKGQPREPQVYTLPPSRDELTKNQVSLTCLVKGFYPSDIAVEWESNGQPENNYKTTPPVLDSDGSFFLYSKLTVDKSRWQQGNVFSCSVMHEALHNHYTQKSLSLSPGK
notes: Humanized version of MH07; No linker is stated; also called hzMH07v3-IgG1; haMH07v3
B4: ME02 sdAb (VHH ME02 fused to human IgG1 xELL Fc) (Fc fusion)
chain: QVQLQQSGGGLVQVGGSQRLSCAASGRTFEYDDMVWFRQAPGKEREEVAGISWSGGSIYYADSVKGRFSISRDNAKNTVYLEMNRLKPEDTAVYYCNVGSYWGQGTQVTVDKTHTCPPCPAPGGPSVFLFPPKPKDTLMISRTPEVTCVVVDVSHEDPEVKFNWYVDGVEVHNAKTKPREEQYNSTYRVVSVLTVLHQDWLNGKEYKCKVSNKALPAPIEKTISKAKGQPREPQVYTLPPSRDELTKNQVSLTCLVKGFYPSDIAVEWESNGQPENNYKTTPPVLDSDGSFFLYSKLTVDKSRWQQGNVFSCSVMHEALHNHYTQKSLSLSPGK
notes: Camelid parental VHH; No linker is stated; also called ME02-IgG1
B5: ME06 sdAb (VHH ME06 fused to human IgG1 xELL Fc) (Fc fusion)
chain: QVQLVQSGGGLVQAGGSLRLSCVASGFTFDDYAIGWFRQAPGKEREGVSCISNSDGSTYYADSVKGRFTISSDNAKNTVYLHVNSLNPEDTAVYYCALREGLPLLLDSLWRQPVEYDYWGQGTQVTVDKTHTCPPCPAPGGPSVFLFPPKPKDTLMISRTPEVTCVVVDVSHEDPEVKFNWYVDGVEVHNAKTKPREEQYNSTYRVVSVLTVLHQDWLNGKEYKCKVSNKALPAPIEKTISKAKGQPREPQVYTLPPSRDELTKNQVSLTCLVKGFYPSDIAVEWESNGQPENNYKTTPPVLDSDGSFFLYSKLTVDKSRWQQGNVFSCSVMHEALHNHYTQKSLSLSPGK
notes: Camelid parental VHH; No linker is stated; also called ME06-IgG1
B6: MB11 sdAb (VHH MB11 fused to human IgG1 xELL Fc) (Fc fusion)
chain: QVQLQQSGGGLVQPGGSLRLSCVASGFLFSIYDMNWYRQAPGKEREWIAGITNNGYSTAYTDSVQGRFTISRDNAKNTIYLQMTSLKPEDTAVYYCHADLTKCYDGEYAWGQGTQVTVDKTHTCPPCPAPGGPSVFLFPPKPKDTLMISRTPEVTCVVVDVSHEDPEVKFNWYVDGVEVHNAKTKPREEQYNSTYRVVSVLTVLHQDWLNGKEYKCKVSNKALPAPIEKTISKAKGQPREPQVYTLPPSRDELTKNQVSLTCLVKGFYPSDIAVEWESNGQPENNYKTTPPVLDSDGSFFLYSKLTVDKSRWQQGNVFSCSVMHEALHNHYTQKSLSLSPGK
notes: Camelid parental VHH; No linker between VHH and Fc is stated; Fc dimers are described only in general terms; also called MB11-IgG1
B7: MC06 sdAb (VHH MC06 fused to human IgG1 xELL Fc) (Fc fusion)
chain: QVQLQESGGGLVQPGGSLRLSCAASGFTFSVYDMNWYRQTPGKEREWVAGISNNGFSTAYAGSVKGRFTISRDNAENTVYLQMNSLKSEDTAVYYCNLDVHGRVGAQGDYWGQGTQVTVDKTHTCPPCPAPGGPSVFLFPPKPKDTLMISRTPEVTCVVVDVSHEDPEVKFNWYVDGVEVHNAKTKPREEQYNSTYRVVSVLTVLHQDWLNGKEYKCKVSNKALPAPIEKTISKAKGQPREPQVYTLPPSRDELTKNQVSLTCLVKGFYPSDIAVEWESNGQPENNYKTTPPVLDSDGSFFLYSKLTVDKSRWQQGNVFSCSVMHEALHNHYTQKSLSLSPGK
notes: Camelid parental VHH; No linker is stated; also called MC06-IgG1
B8: hzMC06v2 sdAb (VHH hzMC06v2 fused to human IgG1 xELL Fc) (Fc fusion)
chain: EVQLVESGGGEVQPGGSLRLSCAASGFTFSVYDMNWYRQAPGKEREWVSGISNNGFSTAYAESVKGRFTISRDNAKNTLYLQMSSLRAEDTAVYYCNLDVHGRVGAQGDYWGQGTLVTVDKTHTCPPCPAPGGPSVFLFPPKPKDTLMISRTPEVTCVVVDVSHEDPEVKFNWYVDGVEVHNAKTKPREEQYNSTYRVVSVLTVLHQDWLNGKEYKCKVSNKALPAPIEKTISKAKGQPREPQVYTLPPSRDELTKNQVSLTCLVKGFYPSDIAVEWESNGQPENNYKTTPPVLDSDGSFFLYSKLTVDKSRWQQGNVFSCSVMHEALHNHYTQKSLSLSPGK
notes: Humanized version of MC06; No linker is stated; also called hzMC06v2-IgG1
B9: MC02 sdAb (VHH MC02 fused to human IgG1 xELL Fc) (Fc fusion)
chain: QVQLVQSGGGLAQPGGSLRLSCTASGFTFRINDMGWYRQAPGKECEMVAGISNNGFSTAYADSVKGRFTISRDNAKNTVSLQMDSLKSEDTAVYYCHRTDDGAAHACSRGQGTQVTVDKTHTCPPCPAPGGPSVFLFPPKPKDTLMISRTPEVTCVVVDVSHEDPEVKFNWYVDGVEVHNAKTKPREEQYNSTYRVVSVLTVLHQDWLNGKEYKCKVSNKALPAPIEKTISKAKGQPREPQVYTLPPSRDELTKNQVSLTCLVKGFYPSDIAVEWESNGQPENNYKTTPPVLDSDGSFFLYSKLTVDKSRWQQGNVFSCSVMHEALHNHYTQKSLSLSPGK
notes: Camelid parental VHH; No linker is stated; also called MC02-IgG1
B10: hzMC02v6 sdAb (VHH hzMC02v6 fused to human IgG1 xELL Fc) (Fc fusion)
chain: EVQLVESGGGEVQPGGSLRLSCAASGFTFRINDMGWYRQAPGKECEMVAGISNNGFSTAYAESVKGRFTISRDNAKNTVYLQMSSLRAEDTAVYYCHRTDEGAAHACSRGQGTLVTVDKTHTCPPCPAPGGPSVFLFPPKPKDTLMISRTPEVTCVVVDVSHEDPEVKFNWYVDGVEVHNAKTKPREEQYNSTYRVVSVLTVLHQDWLNGKEYKCKVSNKALPAPIEKTISKAKGQPREPQVYTLPPSRDELTKNQVSLTCLVKGFYPSDIAVEWESNGQPENNYKTTPPVLDSDGSFFLYSKLTVDKSRWQQGNVFSCSVMHEALHNHYTQKSLSLSPGK
notes: Humanized version of MC02; No linker is stated; also called hzMC02v6-IgG1

The first experiment addresses T1, mFc-CLEC12a-ECD. Description: BLI, mFc-CLEC12a-ECD on anti-mFc sensors first loaded with 100 nM hzMB11v13, then 100 nM second sdAb. On the procedure:
(§1) The epitopes of single domain antibodies (sdAbs) that comprise VHH domains that bind CLEC12a were compared using Bio-Layer Interferometry. 7 μg/mL of mFc-CLEC12a-ECD (SEQ ID NO: 87) was immobilized on anti-mFc coated capture sensors. 100 nM of one sdAb was then loaded onto the CLEC12a antigen and allowed to come to equilibrium. The sensors were then transferred into 100 nM of a second sdAb.
(Biolayer interferometry detects binding as a change in optical thickness at a sensor tip.)
Take B1: the binding result is reported as “binds”.

A further experiment deals with T2, human CLEC12a expressed on transiently …. The experiment in a line: flow cytometry on HEK 293 cells transfected with human CLEC12a; apparent Kd, one-site fit. On the procedure:
(§2) Binding of sdAbs to human CLEC12a was assessed by flow cytometry. […] HEK 293 cells were transiently transfected with a plasmid encoding CLEC12a (UniProt Accession No. Q5QGZ9.3; SEQ ID NO: 1) and used as the positive cell line, and untransfected HEK 293 cells were used as CLEC12a-negative cells. Each cell type was plated at 30,000 cells/well in FACS buffer (PBS 1% BSA, 0.1% NaN₃ pH 7.4) on a 96-well round-bottom plate. The sdAbs were diluted in FACS buffer in a 3-fold, 11 point serial dilution. The sdAb dilutions were added to the plated cells, and assay plates were incubated for 30 minutes at 4° C. After washing twice in 150 μL of FACS buffer, cells in each well were resuspended in 100 μL of 1:2000 Alexa Fluor 647-conjugated Anti-Human IgG secondary diluted in FACS buffer and incubated at 4° C. for 30 minutes. The cells were washed twice more, then bound antibody was detected by flow cytometry.
(§3) Flow cytometric analysis was performed on an Intellicyte iQue Plus and fluorescence was plotted as median fluorescence intensity. The apparent affinity (Kd, nM) was determined using one site binding non-linear regression in PRISM graph software.
Background: A flow cytometer gives signals particle by particle.
On to B2, for which the Kd was found to be 0.1 nM.

Take B3: the Kd was 0.28 nM.

On to B4, for which the Kd was found to be 1.2 nM.

For the molecule B5, the Kd was found to be 0.05 nM.

For B6, the Kd was 58.6 nM.

For B7, the Kd is 1.58 nM.

As to B8, the Kd was determined as 14 nM.

For B1, the Kd is 0.06 nM.

Consider B9, for which the Kd is 0.37 nM.

Take B10: the Kd was 0.35 nM.

For the next experiment the target is unchanged. Description: flow cytometry on HEK 293 cells transiently transfected with human CLEC12a, Alexa Fluor 647 anti-human IgG secondary, median fluorescence. On the procedure:
as §2, §3
By EC50 (read off the curve) is commonly meant the concentration that produces a half-maximal response. Low readings indicate a more potent agent, high ones a less potent agent. For B4, the “EC50 (read off the curve)” value was around 1 nM.

For the molecule B6, the 50% effective concentration (EC50 (read off the curve)) is around 50 nM.

As for B7, the concentration for a half-maximal effect (EC50 (read off the curve)) fell in the range of 1 to 2 nM.

For B8, the “EC50 (read off the curve)” value was around 10 nM.

The target in another experiment is T1, mFc-CLEC12a-ECD. The experiment in a line: BLI epitope binning; mFc-CLEC12a-ECD on anti-mFc sensors, 100 nM sdAb. As to the method:
as §1
As to B3, the binding result was “binds”.

Take B8: the binding result is “binds”.

Regarding B10, the binding result was “binds”.
